Measured values as given in PMC11374688.

Experiments:
[1] = target: S. pombe Ubc4(C21S/C107S) (S. pombe) (UniProt P46595)
[2] = target: Ub(T): S. pombe Ub residues 1–74 extended with Gly–PSAN (Ub-PSAN), as cyanomethyldithioacetal in the complexes (S. pombe) (UniProt P0CG72)
Chain of UniProt P0CG72 (P0CG72 1-74, one chain of several): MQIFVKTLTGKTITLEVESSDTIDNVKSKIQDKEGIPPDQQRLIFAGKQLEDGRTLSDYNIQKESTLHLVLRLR

Chain of S. pombe Ubc4(C21S/C107S) (S. pombe) (P46595 whole entry C21S/C107S, the tested form may be a part): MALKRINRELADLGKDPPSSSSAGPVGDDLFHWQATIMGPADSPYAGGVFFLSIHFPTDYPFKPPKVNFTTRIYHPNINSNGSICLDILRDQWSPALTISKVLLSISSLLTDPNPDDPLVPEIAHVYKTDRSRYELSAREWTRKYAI

E2~Ub(T)-to-E3^HECT pulse–chase transthiolation, fold loss of activity against wild type [1]: 30 fold | E2~Ub(T)-to-E3^HECT pulse–chase transthiolation, fold loss of activity against wild type [2]: 30 fold
B1: S. pombe Pub2^HECT (295–671) F640A (domain or fragment)
chain: DEYQRKIAYMYDRPEMAVNDAQLQLKVSRATTFEDAYDIISKLSVSDMKKKLLIRFRNEDGLDYGGVSREFFYILSHAIFNPGYSLFEYATDDNYGLQISPLSSVNPDFRSYFRFVGRVMGLAIYHRRYLDVQFVLPFYKRILQKPLCLEDVKDVDEVYYESLKWIKNNDVDESLCLNFSVEENRFGESVTVDLIPNGRNIAVNNQNKMNYLKALTEHKLVTSTEEQFNALKGGLNELIPDSVLQIFNENELDTLLNGKRDIDVQDWKRFTDYRSYTETDDIVIWFWELLSEWSPEKKAKLLQFATGTSRLPLSGFKDMHGSDGPRKFTIEKVGHISQLPKAHTCANRLDIPPYNSKEELEQKLTIAIQETAGFGTE
